Experimental data taken from patent US20250092426, “CAS ENDONUCLEASES AND RELATED METHODS” (Flagship Pioneering Innovations VII, LLC, published 2025).

Molecular target: T1, CasEnd-7 (synthetic construct)
T1 chain: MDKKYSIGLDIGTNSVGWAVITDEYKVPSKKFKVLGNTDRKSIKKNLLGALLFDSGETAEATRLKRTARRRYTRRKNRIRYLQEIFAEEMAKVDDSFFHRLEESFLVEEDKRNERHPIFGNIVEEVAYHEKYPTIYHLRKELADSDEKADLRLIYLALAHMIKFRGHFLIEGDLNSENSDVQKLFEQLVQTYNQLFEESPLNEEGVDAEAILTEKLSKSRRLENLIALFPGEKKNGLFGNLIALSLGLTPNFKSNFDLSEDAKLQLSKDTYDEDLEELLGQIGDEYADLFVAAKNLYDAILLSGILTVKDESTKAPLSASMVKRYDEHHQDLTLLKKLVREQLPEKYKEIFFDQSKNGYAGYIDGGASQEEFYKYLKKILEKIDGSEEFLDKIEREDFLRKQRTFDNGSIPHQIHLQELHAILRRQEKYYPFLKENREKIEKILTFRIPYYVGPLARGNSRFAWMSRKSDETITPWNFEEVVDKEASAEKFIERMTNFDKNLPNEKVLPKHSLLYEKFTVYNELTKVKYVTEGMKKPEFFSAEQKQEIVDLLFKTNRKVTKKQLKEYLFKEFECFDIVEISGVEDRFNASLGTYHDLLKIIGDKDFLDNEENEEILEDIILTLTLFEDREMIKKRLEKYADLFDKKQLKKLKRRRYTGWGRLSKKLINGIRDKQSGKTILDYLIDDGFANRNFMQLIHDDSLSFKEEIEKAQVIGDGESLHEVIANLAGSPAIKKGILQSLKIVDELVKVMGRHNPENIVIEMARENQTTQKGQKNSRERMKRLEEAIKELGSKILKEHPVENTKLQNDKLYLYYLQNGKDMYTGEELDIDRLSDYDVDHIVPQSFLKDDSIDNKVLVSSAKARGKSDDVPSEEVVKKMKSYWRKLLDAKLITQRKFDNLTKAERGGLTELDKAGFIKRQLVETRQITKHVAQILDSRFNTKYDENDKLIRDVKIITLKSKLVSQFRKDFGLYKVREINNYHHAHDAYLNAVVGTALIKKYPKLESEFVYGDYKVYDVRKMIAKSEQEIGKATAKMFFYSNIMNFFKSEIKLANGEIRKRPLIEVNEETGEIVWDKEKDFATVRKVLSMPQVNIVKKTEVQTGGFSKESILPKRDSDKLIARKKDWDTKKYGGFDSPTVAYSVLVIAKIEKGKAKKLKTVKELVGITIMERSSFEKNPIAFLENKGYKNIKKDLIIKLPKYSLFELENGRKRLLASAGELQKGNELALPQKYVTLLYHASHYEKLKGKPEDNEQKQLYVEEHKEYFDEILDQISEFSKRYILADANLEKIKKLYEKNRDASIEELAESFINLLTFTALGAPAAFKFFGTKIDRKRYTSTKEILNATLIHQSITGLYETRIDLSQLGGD
Assay: cell_activity; +++; HEK293T; PAM not stated
Summary of the method: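 Editing activity was scored as the fraction of GFP+ cells on day 4 by flow cytometry. BFP-expressing HEK293T cells (250,000) received by nucleofection 200 ng plasmid for the RT-Cas fusion protein and 200 ng template RNA plasmid designed to convert BFP to GFP.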

B1: BFP-to-GFP template RNA ; BFP reporter protospacer (ssRNA ; dsDNA)
RNA: GCCGAAGCACUGCACGCCGUGUUUUAGAGCUAGAAAUAGCAAGUUAAAAUAAGGCUAGUCCGUUAUCAACUUGAAAAAGUGGCACCGAGUCGGUGCACCCUGACGUACGGCGUGCAGUGCUU
DNA 1: GCCGAAGCACTGCACGCCGT
DNA 2: ACGGCGTGCAGTGCTTCGGC
- activity: ≥ 100 % of reference
